{
  "source": "paper PMC12095580",
  "about": "“Wnt signalosome assembly is governed by conformational flexibility of Axin and by the AP2 clathrin adaptor” (Nature Communications, 2025)",
  "parents": {"B1": {"name": "LRP6-GFP [not stated] / FLAG-AP2μ [not stated] (parent complex)", "chain 1": "APLLLYANRRDLRLVDATNGKENATIVVGGLEDAAAVDFVFSHGLIYWSDVSEEAIKRTEFNKTESVQNVVVSGLLSPDGLACDWLGEKLYWTDSETNRIEVSNLDGSLRKVLFWQELDQPRAIALDPSSGFMYWTDWGEVPKIERAGMDGSSRFIIINSEIYWPNGLTLDYEEQKLYWADAKLNFIHKSNLDGTNRQAVVKGSLPHPFALTLFEDILYWTDWSTHSILACNKYTGEGLREIHSDIFSPMDIHAFSQQRQPNATNPCGIDNGGCSHLCLMSPVKPFYQCACPTGVKLLENGKTCKDGATELLLLARRTDLRRISLDTPDFTDIVLQLEDIRHAIAIDYDPVEGYIYWTDDEVRAIRRSFIDGSGSQFVVTAQIAHPDGIAVDWVARNLYWTDTGTDRIEVTRLNGTMRKILISEDLEEPRAIVLDPMVGYMYWTDWGEIPKIERAALDGSDRVVLVNTSLGWPNGLALDYDEGKIYWGDAKTDKIEVMNTDGTGRRVLVEDKIPHIFGFTLLGDYVYWTDWQRRSIERVHKRSAEREVIIDQLPDLMGLKATNVHRVIGSNPCAEENGGCSHLCLYRPQGLRCACPIGFELISDMKTCIVPEAFLLFSRRADIRRISLETNNNNVAIPLTGVKEASALDFDVTDNRIYWTDISLKTISRAFMNGSALEHVVEFGLDYPEGMAVDWLGKNLYWADTGTNRIEVSKLDGQHRQVLVWKDLDSPRALALDPAEGFMYWTEWGGKPKIDRAAMDGSERTTLVPNVGRANGLTIDYAKRRLYWTDLDTNLIESSNMLGLNREVIADDLPHPFGLTQYQDYIYWTDWSRRSIERANKTSGQNRTIIQGHLDYVMDILVFHSSRQSGWNECASSNGHCSHLCLAVPVGGFVCGCPAHYSLNADNRTCSAPTTFLLFSQKSAINRMVIDEQQSPDIILPIHSLRNVRAIDYDPLDKQLYWIDSRQNMIRKAQEDGSQGFTVVVSSVPSQNLEIQPYDLSIDIYSRYIYWTCEATNVINVTRLDGRSVGVVLKGEQDRPRAVVVNPEKGYMYFTNLQERSPKIERAALDGTEREVLFFSGLSKPIALALDSRLGKLFWADSDLRRIESSDLSGANRIVLEDSNILQPVGLTVFENWLYWIDKQQQMIEKIDMTGREGRTKVQARIAQLSDIHAVKELNLQEYRQHPCAQDNGGCSHICLVKGDGTTRCSCPMHLVLLQDELSCGEPPTCSPQQFTCFTGEIDCIPVAWRCDGFTECEDHSDELNCPVCSESQFQCASGQCIDGALRCNGDANCQDKSDEKNCEVLCLIDQFRCANGQCIGKHKKCDHNVDCSDKSDELDCYPTEEPAPQATNTVGSVIGVIVTIFVSGTVYFICQRMLCPRMKGDGETMTNDYVVHGPASVPLGYVPHPSSLSGSLPGMSRGKSMISSLSIMGGSSGPPYDRAHVTGASSSSSSSTKGTYFPAILNPPPSPATERSHYTMEFGYSSNSPSTHRSYSYRPYSYRHFAPPTTPCSTDVCDSDYAPSRRMTSVATAKGYTSDLNYDSEPVPPPPTPRSQYLSAEENYESCPPSPYTERSYSHHLYPPPPSPCTDSS", "chain 2": "MIGGLFIYNHKGEVLISRVYRDDIGRNAVDAFRVNVIHARQQVRSPVTNIARTSFFHVKRSNIWLAAVTKQNVNAAMVFEFLYKMCDVMAAYFGKISEENIKNNFVLIYELLDEILDFGYPQNSETGALKTFITQQGIKSQHQTKEEQSQITSQVTGQIGWRREGIKYRRNELFLDVLESVNLLMSPQGQVLSAHVSGRVVMKSYLSGMPECKFGMNDKIVIEKQGKGTADETSKSGKQSIAIDDCTFHQCVRLSKFDSERSISFIPPDGEFELMRYRTTKDIILPFRVIPLVREVGRTKLEVKVVIKSNFKPSLLAQKIEVRIPTPLNTSGVQVICMKGKAKYKASENAIVWKIKRMAGMKESQISAEIELLPTNDKKKWARPPISMNFEVPFAPSGLKVRYLKVFEPKLNYSDHDVIKWVRYIGRSGIYETRC"}},
  "data": [
    {"variants_of": "B1", "test": "coIP (FLAG IP, α-GFP blot densitometry)", "values": [
      {"variant": "chain 1 Y1503A", "ratio to parent": 0.21},
      {"variant": "chain 1 Y1498A, chain 1 Y1501A", "ratio to parent": 0.58},
      {"variant": "chain 1 S1560A", "ratio to parent": 0.69},
      {"variant": "chain 1 Y1503A, chain 1 F1506A", "ratio to parent": 0.31},
      {"variant": "chain 1 Y1498A, chain 1 Y1501A, chain 1 Y1503A, chain 1 F1506A", "ratio to parent": 0.05}
    ]}
  ]
}
